Data from IntAct's records for PubMed 10659709.

B1: Regulatory protein NPR1 (Arabidopsis thaliana (Mouse-ear cress)), P93002 (parent)
chain: MDTTIDGFADSYEISSTSFVATDNTDSSIVYLAAEQVLTGPDVSALQLLSNSFESVFDSPDDFYSDAKLVLSDGREVSFHRCVLSARSSFFKSALAAAKKEKDSNNTAAVKLELKEIAKDYEVGFDSVVTVLAYVYSSRVRPPPKGVSECADENCCHVACRPAVDFMLEVLYLAFIFKIPELITLYQRHLLDVVDKVVIEDTLVILKLANICGKACMKLLDRCKEIIVKSNVDMVSLEKSLPEELVKEIIDRRKELGLEVPKVKKHVSNVHKALDSDDIELVKLLLKEDHTNLDDACALHFAVAYCNVKTATDLLKLDLADVNHRNPRGYTVLHVAAMRKEPQLILSLLEKGASASEATLEGRTALMIAKQATMAVECNNIPEQCKHSLKGRLCVEILEQEDKREQIPRDVPPSFAVAADELKMTLLDLENRVALAQRLFPTEAQAAMEIAEMKGTCEFIVTSLEPDRLTGTKRTSPGVKIAPFRILEEHQSRLKALSKTVELGKRFFPRCSAVLDQIMNCEDLTQLACGEDDTAEKRLQKKQRYMEIQETLKKAFSEDNLELGNSSLTDSTSSTSKSTGGKRSNRKLSHRRR
partner: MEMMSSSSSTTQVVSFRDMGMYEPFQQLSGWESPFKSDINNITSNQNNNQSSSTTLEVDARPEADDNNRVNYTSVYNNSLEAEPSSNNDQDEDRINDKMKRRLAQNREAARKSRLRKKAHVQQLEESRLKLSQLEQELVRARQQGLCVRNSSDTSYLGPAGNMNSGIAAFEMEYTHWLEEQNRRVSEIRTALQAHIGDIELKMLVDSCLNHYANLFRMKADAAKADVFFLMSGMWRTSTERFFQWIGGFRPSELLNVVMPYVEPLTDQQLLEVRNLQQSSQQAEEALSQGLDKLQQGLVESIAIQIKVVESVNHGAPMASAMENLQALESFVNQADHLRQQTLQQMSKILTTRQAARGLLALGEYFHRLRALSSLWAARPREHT
B2: Regulatory protein NPR1 (Arabidopsis thaliana (Mouse-ear cress)), P93002 (parent)
chain: B1 chain
partner: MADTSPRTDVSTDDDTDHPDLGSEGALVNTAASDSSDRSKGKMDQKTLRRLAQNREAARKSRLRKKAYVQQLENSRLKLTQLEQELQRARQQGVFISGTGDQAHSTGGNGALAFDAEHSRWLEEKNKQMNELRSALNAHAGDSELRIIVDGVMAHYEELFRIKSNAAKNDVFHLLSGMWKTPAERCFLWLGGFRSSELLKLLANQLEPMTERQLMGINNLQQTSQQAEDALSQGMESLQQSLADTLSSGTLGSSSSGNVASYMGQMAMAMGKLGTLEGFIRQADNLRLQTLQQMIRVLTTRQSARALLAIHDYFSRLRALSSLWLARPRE

Variants of: B1
Details: with tga3_arath TGA3, Q39234

Row | Variant | effect of a mutation on the interaction
1 | MDTTIDGFADSYEISSTSFVATDNTDSSIVYLAAEQVLTGPDVSALQLLSNSFESVFDSPDDFYSDAKLVLSDGREVSFHRCVLSARSSFFKSALAAAKKEKDSNNTAAVKLELKEIAKDYEVGFDSVVTVLAYVYSSRVRPPPKGVSEYADENCCHVACRPAVDFMLEVLYLAFIFKIPELITLYQRHLLDVVDKVVIEDTLVILKLANICGKACMKLLDRCKEIIVKSNVDMVSLEKSLPEELVKEIIDRRKELGLEVPKVKKHVSNVHKALDSDDIELVKLLLKEDHTNLDDACALHFAVAYCNVKTATDLLKLDLADVNHRNPRGYTVLHVAAMRKEPQLILSLLEKGASASEATLEGRTALMIAKQATMAVECNNIPEQCKHSLKGRLCVEILEQEDKREQIPRDVPPSFAVAADELKMTLLDLENRVALAQRLFPTEAQAAMEIAEMKGTCEFIVTSLEPDRLTGTKRTSPGVKIAPFRILEEHQSRLKALSKTVELGKRFFPRCSAVLDQIMNCEDLTQLACGEDDTAEKRLQKKQRYMEIQETLKKAFSEDNLELGNSSLTDSTSSTSKSTGGKRSNRKLSHRRR [C150Y] | decreasing interaction strength
2 | MDTTIDGFADSYEISSTSFVATDNTDSSIVYLAAEQVLTGPDVSALQLLSNSFESVFDSPDDFYSDAKLVLSDGREVSFHRCVLSARSSFFKSALAAAKKEKDSNNTAAVKLELKEIAKDYEVGFDSVVTVLAYVYSSRVRPPPKGVSECADENCCHVACRPAVDFMLEVLYLAFIFKIPELITLYQRHLLDVVDKVVIEDTLVILKLANICGKACMKLLDRCKEIIVKSNVDMVSLEKSLPEELVKEIIDRRKELGLEVPKVKKHVSNVHKALDSDDIELVKLLLKEDHTNLDDACALYFAVAYCNVKTATDLLKLDLADVNHRNPRGYTVLHVAAMRKEPQLILSLLEKGASASEATLEGRTALMIAKQATMAVECNNIPEQCKHSLKGRLCVEILEQEDKREQIPRDVPPSFAVAADELKMTLLDLENRVALAQRLFPTEAQAAMEIAEMKGTCEFIVTSLEPDRLTGTKRTSPGVKIAPFRILEEHQSRLKALSKTVELGKRFFPRCSAVLDQIMNCEDLTQLACGEDDTAEKRLQKKQRYMEIQETLKKAFSEDNLELGNSSLTDSTSSTSKSTGGKRSNRKLSHRRR [H300Y] | decreasing interaction strength
3 | MDTTIDGFADSYEISSTSFVATDNTDSSIVYLAAEQVLTGPDVSALQLLSNSFESVFDSPDDFYSDAKLVLSDGREVSFHRCVLSARSSFFKSALAAAKKEKDSNNTAAVKLELKEIAKDYEVGFDSVVTVLAYVYSSRVRPPPKGVSECADENCCHVACRPAVDFMLEVLYLAFIFKIPELITLYQRHLLDVVDKVVIEDTLVILKLANICGKACMKLLDRCKEIIVKSNVDMVSLEKSLPEELVKEIIDRRKELGLEVPKVKKHVSNVHKALDSDDIELVKLLLKEDHTNLDDACALHFAVAYCNVKTATDLLKLDLADVNHRNPRGYTVLYVAAMRKEPQLILSLLEKGASASEATLEGRTALMIAKQATMAVECNNIPEQCKHSLKGRLCVEILEQEDKREQIPRDVPPSFAVAADELKMTLLDLENRVALAQRLFPTEAQAAMEIAEMKGTCEFIVTSLEPDRLTGTKRTSPGVKIAPFRILEEHQSRLKALSKTVELGKRFFPRCSAVLDQIMNCEDLTQLACGEDDTAEKRLQKKQRYMEIQETLKKAFSEDNLELGNSSLTDSTSSTSKSTGGKRSNRKLSHRRR [H334Y] | decreasing interaction strength
4 | MDTTIDGFADSYEISSTSFVATDNTDSSIVYLAAEQVLTGPDVSALQLLSNSFESVFDSPDDFYSDAKLVLSDGREVSFHRCVLSARSSFFKSALAAAKKEKDSNNTAAVKLELKEIAKDYEVGFDSVVTVLAYVYSSRVRPPPKGVSECADENCCHVACRPAVDFMLEVLYLAFIFKIPELITLYQRHLLDVVDKVVIEDTLVILKLANICGKACMKLLDRCKEIIVKSNVDMVSLEKSLPEELVKEIIDRRKELGLEVPKVKKHVSNVHKALDSDDIELVKLLLKEDHTNLDDACALHFAVAYCNVKTATDLLKLDLADVNHRNPRGYTVLHVAAMRKESQLILSLLEKGASASEATLEGRTALMIAKQATMAVECNNIPEQCKHSLKGRLCVEILEQEDKREQIPRDVPPSFAVAADELKMTLLDLENRVALAQRLFPTEAQAAMEIAEMKGTCEFIVTSLEPDRLTGTKRTSPGVKIAPFRILEEHQSRLKALSKTVELGKRFFPRCSAVLDQIMNCEDLTQLACGEDDTAEKRLQKKQRYMEIQETLKKAFSEDNLELGNSSLTDSTSSTSKSTGGKRSNRKLSHRRR [P342S] | decreasing interaction strength

Variants of: B2
Details: with tga2_arath TGA2, P43273

Row | Variant | effect of a mutation on the interaction
5 | MDTTIDGFADSYEISSTSFVATDNTDSSIVYLAAEQVLTGPDVSALQLLSNSFESVFDSPDDFYSDAKLVLSDGREVSFHRCVLSARSSFFKSALAAAKKEKDSNNTAAVKLELKEIAKDYEVGFDSVVTVLAYVYSSRVRPPPKGVSEYADENCCHVACRPAVDFMLEVLYLAFIFKIPELITLYQRHLLDVVDKVVIEDTLVILKLANICGKACMKLLDRCKEIIVKSNVDMVSLEKSLPEELVKEIIDRRKELGLEVPKVKKHVSNVHKALDSDDIELVKLLLKEDHTNLDDACALHFAVAYCNVKTATDLLKLDLADVNHRNPRGYTVLHVAAMRKEPQLILSLLEKGASASEATLEGRTALMIAKQATMAVECNNIPEQCKHSLKGRLCVEILEQEDKREQIPRDVPPSFAVAADELKMTLLDLENRVALAQRLFPTEAQAAMEIAEMKGTCEFIVTSLEPDRLTGTKRTSPGVKIAPFRILEEHQSRLKALSKTVELGKRFFPRCSAVLDQIMNCEDLTQLACGEDDTAEKRLQKKQRYMEIQETLKKAFSEDNLELGNSSLTDSTSSTSKSTGGKRSNRKLSHRRR [C150Y] | disrupting interaction
6 | MDTTIDGFADSYEISSTSFVATDNTDSSIVYLAAEQVLTGPDVSALQLLSNSFESVFDSPDDFYSDAKLVLSDGREVSFHRCVLSARSSFFKSALAAAKKEKDSNNTAAVKLELKEIAKDYEVGFDSVVTVLAYVYSSRVRPPPKGVSECADENCCHVACRPAVDFMLEVLYLAFIFKIPELITLYQRHLLDVVDKVVIEDTLVILKLANICGKACMKLLDRCKEIIVKSNVDMVSLEKSLPEELVKEIIDRRKELGLEVPKVKKHVSNVHKALDSDDIELVKLLLKEDHTNLDDACALYFAVAYCNVKTATDLLKLDLADVNHRNPRGYTVLHVAAMRKEPQLILSLLEKGASASEATLEGRTALMIAKQATMAVECNNIPEQCKHSLKGRLCVEILEQEDKREQIPRDVPPSFAVAADELKMTLLDLENRVALAQRLFPTEAQAAMEIAEMKGTCEFIVTSLEPDRLTGTKRTSPGVKIAPFRILEEHQSRLKALSKTVELGKRFFPRCSAVLDQIMNCEDLTQLACGEDDTAEKRLQKKQRYMEIQETLKKAFSEDNLELGNSSLTDSTSSTSKSTGGKRSNRKLSHRRR [H300Y] | disrupting interaction
7 | MDTTIDGFADSYEISSTSFVATDNTDSSIVYLAAEQVLTGPDVSALQLLSNSFESVFDSPDDFYSDAKLVLSDGREVSFHRCVLSARSSFFKSALAAAKKEKDSNNTAAVKLELKEIAKDYEVGFDSVVTVLAYVYSSRVRPPPKGVSECADENCCHVACRPAVDFMLEVLYLAFIFKIPELITLYQRHLLDVVDKVVIEDTLVILKLANICGKACMKLLDRCKEIIVKSNVDMVSLEKSLPEELVKEIIDRRKELGLEVPKVKKHVSNVHKALDSDDIELVKLLLKEDHTNLDDACALHFAVAYCNVKTATDLLKLDLADVNHRNPRGYTVLYVAAMRKEPQLILSLLEKGASASEATLEGRTALMIAKQATMAVECNNIPEQCKHSLKGRLCVEILEQEDKREQIPRDVPPSFAVAADELKMTLLDLENRVALAQRLFPTEAQAAMEIAEMKGTCEFIVTSLEPDRLTGTKRTSPGVKIAPFRILEEHQSRLKALSKTVELGKRFFPRCSAVLDQIMNCEDLTQLACGEDDTAEKRLQKKQRYMEIQETLKKAFSEDNLELGNSSLTDSTSSTSKSTGGKRSNRKLSHRRR [H334Y] | disrupting interaction
8 | MDTTIDGFADSYEISSTSFVATDNTDSSIVYLAAEQVLTGPDVSALQLLSNSFESVFDSPDDFYSDAKLVLSDGREVSFHRCVLSARSSFFKSALAAAKKEKDSNNTAAVKLELKEIAKDYEVGFDSVVTVLAYVYSSRVRPPPKGVSECADENCCHVACRPAVDFMLEVLYLAFIFKIPELITLYQRHLLDVVDKVVIEDTLVILKLANICGKACMKLLDRCKEIIVKSNVDMVSLEKSLPEELVKEIIDRRKELGLEVPKVKKHVSNVHKALDSDDIELVKLLLKEDHTNLDDACALHFAVAYCNVKTATDLLKLDLADVNHRNPRGYTVLHVAAMRKESQLILSLLEKGASASEATLEGRTALMIAKQATMAVECNNIPEQCKHSLKGRLCVEILEQEDKREQIPRDVPPSFAVAADELKMTLLDLENRVALAQRLFPTEAQAAMEIAEMKGTCEFIVTSLEPDRLTGTKRTSPGVKIAPFRILEEHQSRLKALSKTVELGKRFFPRCSAVLDQIMNCEDLTQLACGEDDTAEKRLQKKQRYMEIQETLKKAFSEDNLELGNSSLTDSTSSTSKSTGGKRSNRKLSHRRR [P342S] | disrupting interaction
